# According to paper doi:10.1101/2025.11.11.687647 (bioRxiv, 2025):
# Biological target: the molecule itself
# Experiment: cryo-EM structure
protein,measurement,value
CT–PT–BCCP fragment of MtPC (degradation product) (domain or fragment) ADRGTKILNFLADVTVNNPYGSRPSTIYPDDKLPDLDLRAAPPAGSKQRLVKLGPEGFARWLRESAAVGVTDTTFRDAHQSLLATRVRTSGLSRVAPYLARTMPQLLSVECWGGATYDVALRFLKEDPWERLATLRAAMPNICLQMLLRGRNTVGYTPYPEIVTSAFVQEATATGIDIFRIFDALNNIESMRPAIDAVRETGSAIAEVAMCYTGDLTDPGEQLYTLDYYLKLAEQIVDAGAHVLAIKDMAGLLRPPAAQRLVSALRSRFDLPVHLHTHDTPGGQLASYVAAWHAGADAVDGAAAPLAGTTSQPALSSIVAAAAHTEYDTGLSLSAVCALEPYWEALRKVYAPFESGLPGPTGRVYHHEIPGGQLSNLRQQAIALGLGDRFEEIEEAYAGADRVLGRLVKVTPTSKVVGDLALALVGAGVSADEFASDPARFGIPESVLGFLRGELGDPPGGWPEPLRTAALAGRGAARPTAQLAADDEIALSSVGAKRQATLNRLLFPSPTKEFNEHREAYGDTSQLSANQFFYGLRQGEEHRVKLERGVELLIGLEAISEPDERGMRTVMCILNGQLRPVLVRDRSIASAVPAAEKADRGNPGHIAAPFAGVVTVGVCVGERVGAGQTIATIEAMKMEAPITAPVAGTVERVAVSDTAQVEGGDLLVVVS,stoichiometry N,2
